Patent US20260035464A1

Assays:
[1] = target: human BTLA extracellular domain with C-terminal 10xHis tag (human) (UniProt Q7Z6A9); assay: BLI (Octet RED96), antibody on AHC biosensor, His-tag-huBTLA in solution; column head prints nM, but Koff/Kon shows the values are in M
[2] = target: human BTLA extracellular domain with C-terminal 10xHis tag (human) (UniProt Q7Z6A9); assay: BLI (Octet RED96), antibody on AHC biosensor, His-tag-huBTLA in solution

human BTLA extracellular domain with C-terminal 10xHis tag (human), sequence (Q7Z6A9 other isoform, or with tags, fused parts or gaps): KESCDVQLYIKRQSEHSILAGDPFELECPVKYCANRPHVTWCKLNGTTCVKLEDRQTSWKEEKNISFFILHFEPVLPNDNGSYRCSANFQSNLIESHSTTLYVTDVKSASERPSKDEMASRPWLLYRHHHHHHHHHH

- Kd [1]: 2.09 nM
- koff [2]: 0.00124 s⁻¹
- kon [2]: 621000 M⁻¹ s⁻¹
Substance: Icatolimab (antibody)
